The test addresses T1, recombinant human TIGIT (human, UniProt Q495A1 22-141, limits assumed).
T1 construct: recombinant human TIGIT used in Carterra SPR; also called hTIGIT
T1 sequence (looked up): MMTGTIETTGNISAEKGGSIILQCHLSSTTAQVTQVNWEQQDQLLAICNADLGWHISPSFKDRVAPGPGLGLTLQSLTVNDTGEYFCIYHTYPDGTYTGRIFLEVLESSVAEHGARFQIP
Put plainly: SPR Carterra, average. The procedure:
Binding affinities of VHH-Fc proteins to recombinant human TIGIT were measured by SPR using a Carterra instrument (Table 10A). […] Average values reported from measurements from 1-2 samples.

B1: TIGIT-SC67 (Fc fusion)
VHH: EVQLVESGGGLVQPGGSLRLSCAASGFTFDRSWMGWFRQAPGKEREWVSTIYSNGTPAYADSVKGRFTISADNSKNTAYLQMNSLKPEDTAVYYCARRGLPSYSYGMDVWGQGTLVTVSS
notes: VHH-Fc fusion in assay
Regarding B1, the Kd stood at 18 nM, the koff was 0.00402 s⁻¹ and the association rate constant (kon) amounted to 224000 M⁻¹ s⁻¹.

B2: TIGIT-SC2 (Fc fusion)
VHH: EVQLVESGGGLVQPGGSLRLSCAASGFTLSSNWMGWFRQAPGKEREMVAAIDWSGGSALYADSVKGRFTISADNSKNTAYLQMNSLKPEDTAVYYCAKDALSNSARFDHWGQGTLVTVSS
notes: VHH-Fc fusion in assay
In the case of B2, the Kd was found to be 22.1 nM, the koff worked out at 0.00274 s⁻¹ and the kon was found to be 124000 M⁻¹ s⁻¹.

B3: TIGIT-SC124 (Fc fusion)
VHH: EVQLVESGGGLVQPGGSLRLSCAASGSIFSSNWMGWFRQAPGKEREMVAAIDWSGGSALYADSVKGRFTISADNSKNTAYLQMNSLKPEDTAVYYCAKDALSNSARFDHWGQGTLVTVSS
notes: VHH-Fc fusion in assay
With B3, the Kd came out at 51 nM, the koff is 0.00531 s⁻¹ and the kon came out at 105000 M⁻¹ s⁻¹.

B4: TIGIT-SC18 (Fc fusion)
VHH: EVQLVESGGGLVQPGGSLRLSCAASGFSLDYYAMGWFRQAPGKEREVVAIIDTNGDNTLYADSVKGRFTISADNSKNTAYLQMNSLKPEDTAVYYCARGRGYGDYVGAYWGQGTLVTVSS
notes: VHH-Fc fusion in assay
For the molecule B4, the Kd was 16.3 nM, the koff was 0.00225 s⁻¹ and the on-rate (kon) was determined as 141000 M⁻¹ s⁻¹.

B5: TIGIT-SC151 (Fc fusion)
VHH: EVQLVESGGGLVQPGGSLRLSCAASGFPFSIYPMGWFRQAPGKEREFVAAISASGTLRAYADSVKGRFTISADNSKNTAYLQMNSLKPEDTAVYYCARSSSWVRIFDYWGQGTLVTVSS
notes: VHH-Fc fusion in assay
Take B5: the Kd was 16.8 nM, the koff came out at 0.00479 s⁻¹ and the kon came to 285000 M⁻¹ s⁻¹.

B6: TIGIT-SC22 (Fc fusion)
VHH: EVQLVESGGGLVQPGGSLRLSCAASGFTLENNMMGWFRQAPGKEREMVAAISWSGGSALYADSVKGRFTISADNSKNTAYLQMNSLKPEDTAVYYCARGDGYSYGNFDYWGQGTLVTVSS
notes: VHH-Fc fusion in assay
As for B6, the Kd came out at 17.7 nM, the koff turned out to be 0.00118 s⁻¹ and the kon turned out to be 70300 M⁻¹ s⁻¹.

B7: TIGIT-SC119 (Fc fusion)
VHH: EVQLVESGGGLVQPGGSLRLSCAASGNTFSGGFMGWFRQAPGKEREWVASVLRGGYTWYADSVKGRFTISADNSKNTAYLQMNSLKPEDTAVYYCAKDGGWFDPWGQGTLVTVSS
notes: VHH-Fc fusion in assay
In the case of B7, the Kd is 19.7 nM, the off-rate (koff) stood at 0.00367 s⁻¹ and the kon stood at 196000 M⁻¹ s⁻¹.

B8: TIGIT-SC120 (Fc fusion)
VHH: EVQLVESGGGLVQPGGSLRLSCAASGFTFSPSWMGWFRQAPGKEREWVASVLRGGYTWYADSVKGRFTISADNSKNTAYLQMNSLKPEDTAVYYCAKDGGWFDPWGQGTLVTVSS
notes: VHH-Fc fusion in assay
Consider B8, for which the dissociation constant Kd came out at 66.1 nM, the off-rate (koff) was determined as 0.00478 s⁻¹ and the kon worked out at 67600 M⁻¹ s⁻¹.

B9: TIGIT-SC17 (Fc fusion)
VHH: EVQLVESGGGLVQPGGSLRLSCAASGFDFSVSWMGWFRQAPGKEREWVASVLRGGYTWYADSVKGRFTISADNSKNTAYLQMNSLKPEDTAVYYCAREGSWFDYWGQGTLVTVSS
notes: VHH-Fc fusion in assay
In the case of B9, the Kd amounted to 47.9 nM, the koff worked out at 0.00149 s⁻¹ and the association rate constant (kon) was 31200 M⁻¹ s⁻¹.

B10: TIGIT-SC165 (Fc fusion)
VHH: EVQLVESGGGLVQPGGSLRLSCAASGNTFSGGFMGWFRQAPGKEREWVASVLRGGYTWYADSVKGRFTISADNSKNTAYLQMNSLKPEDTAVYYCTTEGSGWRNWGQGTLVTVSS
notes: VHH-Fc fusion in assay
As for B10, the equilibrium dissociation constant (Kd) was 62.5 nM, the koff turned out to be 0.00484 s⁻¹ and the kon came to 93300 M⁻¹ s⁻¹.

B11: TIGIT-SC37 (Fc fusion)
VHH: EVQLVESGGGLVQPGGSLRLSCAASGNTFSGGFMGWFRQAPGKEREWVASVLRGGYTWYADSVKGRFTISADNSKNTAYLQMNSLKPEDTAVYYCVFGGVWQDVWGQGTLVTVSS
notes: VHH-Fc fusion in assay
Consider B11, for which the Kd was 23.7 nM, the off-rate constant (koff) stood at 0.00507 s⁻¹ and the kon worked out at 214000 M⁻¹ s⁻¹.

B12: TIGIT-SC189 (Fc fusion)
VHH: EVQLVESGGGLVQPGGSLRLSCAASGNTFSGGFMGWFRQAPGKEREWVASVLRGGYTWYADSVKGRFTISADNSKNTAYLQMNSLKPEDTAVYYCVTDVGAPDYWGQGTLVTVSS
notes: VHH-Fc fusion in assay
Consider B12, for which the dissociation constant (Kd) is 883 nM, the koff is 0.00528 s⁻¹ and the kon came out at 8880 M⁻¹ s⁻¹.

B13: TIGIT-SC190 (Fc fusion)
VHH: EVQLVESGGGLVQPGGSLRLSCAASGFTFDRSWMGWFRQAPGKEREWVASVLRGGYTWYADSVKGRFTISADNSKNTAYLQMNSLKPEDTAVYYCVTDVGAPDYWGQGTLVTVSS
notes: VHH-Fc fusion in assay
On to B13, for which the dissociation constant (Kd) came to 24.3 nM, the koff came to 0.0015 s⁻¹ and the kon is 78400 M⁻¹ s⁻¹.

B14: TIGIT-SC213 (Fc fusion)
VHH: EVQLVESGGGLVQPGGSLRLSCAASGTFQRINAMGWFRQAPGKEREFVAAIWRSGTLKAYADSVKGRFTISADNSKNTAYLQMNSLKPEDTAVYYCARWVGASGDYWIDYWGQGTLVTVSS
notes: VHH-Fc fusion in assay
As to B14, the Kd was 36.4 nM, the dissociation rate constant (koff) is 0.00285 s⁻¹ and the kon turned out to be 78400 M⁻¹ s⁻¹.

B15: TIGIT-SC41 (Fc fusion)
VHH: EVQLVESGGGLVQPGGSLRLSCAASGMTTIGPMGWFRQAPGKEREFVASIAWGDGNTYYADSVKGRFTISADNSKNTAYLQMNSLKPEDTAVYYCVRGGSRTLWGQGTLVTVSS
notes: VHH-Fc fusion in assay
On to B15, for which the Kd was 19.2 nM, the koff worked out at 0.0118 s⁻¹ and the kon came to 631000 M⁻¹ s⁻¹.

B16: TIGIT-SC167 (Fc fusion)
VHH: EVQLVESGGGLVQPGGSLRLSCAASGRTFSFMGWFRQAPGKEREWVASVLRGGYTWYADSVKGRFTISADNSKNTAYLQMNSLKPEDTAVYYCAREGSGYASDYWGQGTLVTVSS
notes: VHH-Fc fusion in assay
With B16, the Kd was found to be 21.3 nM, the off-rate constant (koff) is 0.00349 s⁻¹ and the kon came to 164000 M⁻¹ s⁻¹.

B17: TIGIT-SC185 (Fc fusion)
VHH: EVQLVESGGGLVQPGGSLRLSCAASGRTFSFMGWFRQAPGKEREWVASVLRGGYTWYADSVKGRFTISADNSKNTAYLQMNSLKPEDTAVYYCTTDRGYNWNYDWGQGTLVTVSS
notes: VHH-Fc fusion in assay
As to B17, the equilibrium dissociation constant (Kd) is 80.3 nM, the off-rate constant (koff) is 0.00621 s⁻¹ and the kon was 141000 M⁻¹ s⁻¹.

B18: TIGIT-SC126 (Fc fusion)
VHH: EVQLVESGGGLVQPGGSLRLSCAASGSIFSGNVMGWFRQAPGKERELVAAISNSASSTVYADSVKGRFTISADNSKNTAYLQMNSLKPEDTAVYYCARDWNLFDYWGQGTLVTVSS
notes: VHH-Fc fusion in assay
For the molecule B18, the Kd turned out to be 18.6 nM, the koff stood at 0.013 s⁻¹ and the kon amounted to 871000 M⁻¹ s⁻¹.

B19: TIGIT-SC127 (Fc fusion)
VHH: EVQLVESGGGLVQPGGSLRLSCAASGSIFSGNAMGWFRQAPGKERELVAAISNSASSTVYADSVKGRFTISADNSKNTAYLQMNSLKPEDTAVYYCARDWNLFDYWGQGTLVTVSS
notes: VHH-Fc fusion in assay
Consider B19, for which the equilibrium dissociation constant (Kd) came to 32.8 nM, the off-rate constant (koff) is 0.0164 s⁻¹ and the kon was determined as 501000 M⁻¹ s⁻¹.

B20: TIGIT-SC73 (Fc fusion)
VHH: EVQLVESGGGLVQPGGSLRLSCAASGSSFSLADYAMGWFRQAPGKEREFVAAISYNVGTTYYADSVKGRFTISADNSKNTAYLQMNSLKPEDTAVYYCARWSAKRHSDTMTYYMDVWGQGTLVTVSS
notes: VHH-Fc fusion in assay
For the molecule B20, the dissociation constant (Kd) was 21.8 nM, the koff turned out to be 0.00276 s⁻¹ and the association rate constant (kon) was 126000 M⁻¹ s⁻¹.

B21: TIGIT-SC64 (Fc fusion)
VHH: EVQLVESGGGLVQPGGSLRLSCAASGFAFSNFGMGWFRQAPGKERELVSAIGWSGASTYYADSVKGRFTISADNSKNTAYLQMNSLKPEDTAVYYCARRGRTIPFDYWGQGTLVTVSS
notes: VHH-Fc fusion in assay
Regarding B21, the Kd came out at 19.6 nM, the koff was 0.00343 s⁻¹ and the kon was 207000 M⁻¹ s⁻¹.

B22: TIGIT-SC136 (Fc fusion)
VHH: EVQLVESGGGLVQPGGSLRLSCAASGFTLENNMMGWFRQAPGKEREFVAAISRSGTLKAYADSVKGRFTISADNSKNTAYLQMNSLKPEDTAVYYCARGGELTTFYFGYWGQGTLVTVSS
notes: VHH-Fc fusion in assay
On to B22, for which the Kd amounted to 20.4 nM, the koff turned out to be 0.00254 s⁻¹ and the kon was determined as 209000 M⁻¹ s⁻¹.

B23: TIGIT-SC150 (Fc fusion)
VHH: EVQLVESGGGLVQPGGSLRLSCAASGFTLENNMMGWFRQAPGKEREFVAAISRSGTLKAYADSVKGRFTISADNSKNTAYLQVNSLKPEDTAVYYCVRVRGYSGYDCDYWGQGTLVTVSS
notes: VHH-Fc fusion in assay
B23: the Kd came to 99.8 nM, the koff was 0.0212 s⁻¹ and the kon is 212000 M⁻¹ s⁻¹.

B24: TIGIT-SC180 (Fc fusion)
VHH: EVQLVESGGGLVQPGGSLRLSCAASGFTLNDYAMGWFRQAPGKERELVAWIARYDGSTLYADSVKGRFTISADNSKNTAYLQMNSLKPEDTAVYYCASEVASGETDYWGQGTLVTVSS
notes: VHH-Fc fusion in assay
As for B24, the Kd was 21.7 nM, the off-rate (koff) was determined as 0.0101 s⁻¹ and the kon was found to be 465000 M⁻¹ s⁻¹.

B25: TIGIT-SC32 (Fc fusion)
VHH: EVQLVESGGGLVQPGGSLRLSCAASGFAFGDSWMGWFRQAPGKERELVAAIDWSGGSALYADSVKGRFTISADNSKNTALQMNSLKPEDTAVYYCAKVHSDFRAGWDVWGQGTLVTVSS
notes: VHH-Fc fusion in assay
B25: the Kd came to 16.6 nM, the off-rate constant (koff) was determined as 0.00243 s⁻¹ and the kon is 147000 M⁻¹ s⁻¹.

B26: TIGIT-SC52 (Fc fusion)
VHH: EVQLVESGGGLVQPGGSLRLSCAASGFLFDSYAMGWFRQAPGKEREFVAAISTGGGWRTYADSVKGRFTISADNSKNTAYLQMNSLKPEDTAVYYCAKRGNDNWYFDLWGQGTLVTVSS
notes: VHH-Fc fusion in assay
B26: the Kd worked out at 17.7 nM, the koff was determined as 0.00175 s⁻¹ and the on-rate constant (kon) amounted to 101000 M⁻¹ s⁻¹.

By Kd is commonly meant the concentration at which binding is half-saturated. For orientation: koff means a measure of how fast the partners let go of each other. The term kon denotes the second-order rate constant of association.

Values taken from patent US20260184782A1 (TWIST BIOSCIENCE, published 2026).
